{"source": "paper PMC6721559", "origin": "cited, not measured here", "biological_target": "Ubc9 (Homo sapiens) (UniProt P63279)", "sequence (P63279 2-158)": "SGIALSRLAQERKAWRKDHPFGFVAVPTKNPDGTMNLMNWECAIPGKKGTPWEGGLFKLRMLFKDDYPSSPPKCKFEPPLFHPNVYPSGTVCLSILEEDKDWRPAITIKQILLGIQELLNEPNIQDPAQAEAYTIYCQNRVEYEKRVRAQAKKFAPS"}
{"substance": "SUMO (from UniProt P63165)", "values": [{"measurement": "Kd", "result": 0.082, "unit": "µM"}]}
